Results: the supplement of paper PMC10567573
± gives the standard deviation.

Test: protein stability index of a GFP-peptide fusion (GPS, HEK-293T) (PSI 1-6); higher = more stable
[1] = treatment: DMSO, c terminus: a fixed tail appended
[2] = treatment: MLN4924 1 uM, 8 h, c terminus: a fixed tail appended
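Also: 24-mer peptide tiles fused after GFP, lentivirally expressed, FACS-sorted into six equal bins by GFP/DsRed ratio, decoded by Illumina sequencing, PSI is the read-weighted mean bin number.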

Row | Sequence | protein stability index [1] | protein stability index [2] | protein stability index (treatment: DMSO, c terminus: native) | protein stability index (treatment: MLN4924 1 uM, 8 h, c terminus: native)
1 | ARLQEPVTFRDVAVDFTQEEWGQL [ZNF8] | 4.13 ± 0.2 | 4.07 ± 0.22 | – | –
2 | LEALHLEALCEEDLLLWIQKHTEV [DENND6A] | 2.68 ± 0.17 | 2.84 ± 0.67 | – | –
3 | YAHQPRTADEIPMEPGDIIGVAGN [FUT8] | 4.2 ± 0.24 | 4.36 ± 0.17 | – | –
4 | RSLFSSVPSKPPMSLEPQNGTYAG [ANKRD40] | 3.51 ± 0.19 | 4.29 ± 0.41 | – | –
5 | GRESYIPGICVARVYHGWLFEGLG [SLA] | – | 1.8 ± 0.88 | – | –
6 | PQGISPVSQHWATWALYNLVSVYP [ZER1] | 3 ± 0.57 | 2.88 ± 0.32 | – | –
7 | RYAEHVAATQALPQDSGTAAWKGR [C22orf31] | 4.1 ± 0.17 | 4.14 ± 0.35 | – | –
8 | ENVSVEMLLRKFAESKGTGREKPG [FCHO1] | 3.9 ± 0.086 | 4.23 ± 0.26 | – | –
9 | GSLHAGGARLVAACSAWLCPGLRL [AUH] | – | 2.43 ± 0.7 | – | –
10 | AALTRMRAESTANAGQSDNRSLAE [ANKRD17] | 4.79 ± 0.14 | 4.81 ± 0.15 | – | –
11 | VLSHIMFDGPEAWGVCEPQREEVE [ZER1] | 3.63 ± 0.17 | 3.49 ± 0.28 | – | –
12 | SWSDNERSSSRINIPERASGPEGN [FAM104B] | 4.79 ± 0.11 | 4.73 ± 0.32 | – | –
13 | LEAGLPLQVRGYPEEKKEEEGSAN [CHGA] | 5.61 ± 0.35 | 5.79 ± 0.15 | – | –
14 | SLDEFRQTWKLFSSHMNIDITDDC [PPEF2] | 2.49 ± 0.3 | 2.75 ± 0.21 | – | –
15 | RPSRSGAQQLEEEGPMEEEEAQPM [EID1] | 5.66 ± 0.25 | 5.53 ± 0.2 | – | –
16 | QPAFTGIKGKEGSALTEGAKEEGG [EPB41L3] | 5.5 ± 0.071 | 5.65 ± 0.23 | – | –
17 | LLMIPWGSAAKLVCYFTNWAQYRQ [CHIT1] | 3.04 ± 0.69 | 2.86 ± 0.68 | – | –
18 | WDSFSAWLHCVCVVGFDLELGQAV [DENND6A] | 3.04 ± 0.34 | 3.27 ± 0.68 | – | –
19 | APQHPQPGSQALPAPALAPDQLPQ [FBXO28] | 5.13 ± 0.32 | 5.04 ± 0.29 | – | –
20 | NPGTDAVAQTSLEEFNVLEMEVMR [FATE1] | 4.71 ± 0.18 | 4.68 ± 0.13 | – | –
21 | ATSRTDREIKVTLVFEHVDQDLRT [CDK4] | 2.2 ± 0.3 | 2.26 ± 0.41 | – | –
22 | LVACCLADIFRIYAPEAPYTSPDK [PDS5B] | 3.3 ± 1.4 | – | – | –

Row | Sequence | protein stability index [1] | protein stability index [2] | protein stability index (treatment: DMSO, c terminus: native) | protein stability index (treatment: MLN4924 1 uM, 8 h, c terminus: native)
23 | KVKVPQKTAGKENHFDMHRVGKWH [ZNF75A] | 2.87 ± 0.45 | 3.43 ± 0.51 | – | –
24 | AVWGQCQVRIRYLGERRAEPHSLL [SPSB2] | 2.26 ± 0.23 | 2.19 ± 0.28 | – | –
25 | TFHEGKHNISHMSMDIARGLMVTC [WDFY1] | 2.49 ± 0.63 | 2.04 ± 0.14 | – | –
26 | HYAGQDATDPFVAFHINKGLVKKY [FADS1] | 3.21 ± 0.26 | 3.14 ± 0.11 | – | –
27 | FSIVSVAAHLALLLLCGTISLRVY [RTN2] | 3.35 ± 0.76 | 3.16 ± 0.8 | – | –
28 | VGVMLPHNTTEAPGPHSAKQDSYE [ZC2HC1C] | 5.03 ± 0.27 | 5.215 ± 0.033 | – | –
29 | GSMEQVSSHFLEQTLDKKLMSDLR [INTS4] | 3.72 ± 0.2 | 3.73 ± 0.6 | – | –
30 | SLQQQHQADLELIESAHRSRIKVL [FBF1] | 3.53 ± 0.074 | 3.47 ± 0.31 | – | –
31 | PPLWAASAAGHLDVVRSLLRRGAS [FEM1A] | 3.55 ± 0.28 | 3.43 ± 0.28 | – | –
32 | QGGGNGQQQQAMSFAILRIIRLVR [KCNA4] | 2.46 ± 0.28 | 2.67 ± 0.24 | – | –
33 | VASVGNSRPTGQQLESLGLLAPGE [KISS1] | 4.44 ± 0.17 | 4.52 ± 0.3 | – | –
34 | WPFSMDCTGTEAHISSCKLGPQVS [LOXL2] | 3.02 ± 0.25 | 3.08 ± 0.34 | – | –
35 | LIFFGGYGYLPEDKVLGTFEFDET [KLHDC2] | 2.13 ± 0.66 | 2.6 ± 0.73 | – | –
36 | TCVNLLLEASNYQMMPYMQPVMQS [KLHL13] | 3.06 ± 0.41 | 2.98 ± 0.36 | – | –
37 | PVALLLAQHKDRSTQLEMQLEKPK [MNAT1] | 3.84 ± 0.19 | 3.8 ± 0.12 | – | –
38 | SVCSCTCYRSQDYGGRSVAPQNSF [KCNK9] | 2.44 ± 0.23 | 2.64 ± 0.43 | – | –
39 | STFHTISPSFQLKAAALPPFPLGA [PLAGL1] | 2.48 ± 0.46 | 2.64 ± 0.16 | – | –
40 | TEKTTTVLSESSGPSNTSHSSSRD [C2CD2L] | 5.42 ± 0.15 | 5.31 ± 0.25 | – | –
41 | MCPLYDPNRQLWIELAPLSMPRIN [GAN] | 2.22 ± 0.11 | 2.23 ± 0.28 | – | –
42 | TPSPADAKAPPTACYAGAAPAPSQ [CEBPB] | 4.75 ± 0.38 | 4.75 ± 0.27 | – | –
43 | ILTEPAQAQKCYRDLALVSRDGMN [INTS3] | 3.28 ± 0.3 | 3.24 ± 0.6 | – | –
44 | VFPETAFIAVTSYQNHKITQLKIE [TBX5] | 2.22 ± 0.35 | 2.21 ± 0.32 | – | –

Row | Sequence | protein stability index [1] | protein stability index [2] | protein stability index (treatment: DMSO, c terminus: native) | protein stability index (treatment: MLN4924 1 uM, 8 h, c terminus: native)
45 | QECLKQLAIKKQQHIDNITQIEDA [TRIM14] | 4.93 ± 0.19 | 4.72 ± 0.22 | – | –
46 | EGSRSSGSNRSGSDRRKEKDPKAG [DVL3] | 5.38 ± 0.15 | 5.5 ± 0.2 | – | –
47 | VAITILQDDHDHKVQELMSTHELE [MTUS2] | 3.3 ± 0.3 | 3.43 ± 0.23 | – | –
48 | QAFCCENDINILRVSNPGRLAELL [GADD45A] | 2.74 ± 0.36 | 2.82 ± 0.34 | – | –
49 | ICQGIRGLWGTTLTENTAENRELY [PKD2L1] | 3.03 ± 0.19 | 3.37 ± 0.21 | – | –
50 | EACKAFFKRTIQGSIEYSCPASNE [ESRRA] | 2.98 ± 0.19 | 3 ± 0.17 | – | –
51 | LEFRSFWELIGEAAKSVKLERPVR [S100A14] | 1.87 ± 0.2 | 2.33 ± 0.35 | – | –
52 | KCEHCRVLFLDHVMYTIHMGCHGF [IKZF1] | 2.24 ± 0.38 | 2.49 ± 0.63 | – | –
53 | LWTTSRVLKVLSVCSSNKPAIVEA [CTNNB1] | 2.21 ± 0.3 | 2.08 ± 0.28 | – | –
54 | YPVGWPPVQELPPSLRAPPPGGWP [ZMAT5] | 2.39 ± 0.88 | 2.83 ± 0.69 | – | –
55 | GLTKKRTKVQKKSLLLKKPLRVDL [NOP53] | 3.25 ± 0.13 | 3.42 ± 0.35 | – | –
56 | TDIELEIYGMEGIPEKDMDERRRL [ZNF207] | 4.77 ± 0.097 | 4.86 ± 0.22 | – | –
57 | IFSLATEWVISTGHDKCVSWMCTR [WDFY1] | 2.94 ± 0.47 | 2.85 ± 0.66 | – | –
58 | DDGTYSQVQCHSYTGYCWCVTPNG [SMOC2] | 2.48 ± 0.14 | 2.66 ± 0.47 | – | –
59 | TRLSRLQEKEELRELNDRLAVYID [LMNB1] | 3.42 ± 0.25 | 3.5 ± 0.28 | – | –
60 | MLPTVITDIKDESCCMTEEIFGPV [ALDH8A1] | 3.83 ± 0.2 | 3.81 ± 0.13 | – | –
61 | IAIVSVMVILISIVIFCLETLPEL [KCNA1] | 2.39 ± 0.25 | 2.44 ± 0.16 | – | –
62 | NFFTTLRVVHHKFHSQRHGSKKD [TMEM120A] | – | – | 3.32 ± 0.33 | 3.3 ± 0.45
63 | ADDFRTKYEHELALRQTVEADVNG [KRT16] | 5.17 ± 0.38 | 5.09 ± 0.034 | – | –
64 | GGDGSGCSKQSGSFRKFRYGYNNV [ADAMTS4] | 3.59 ± 0.3 | 3.389 ± 0.008 | – | –
65 | TVHEVDIFRCFCPVFLHSQMLWEL [DENND6A] | 2.89 ± 0.61 | 3.33 ± 0.49 | – | –
66 | EADVNGLRRVLDELTLARTDLEMQ [KRT16] | 4 ± 0.35 | 4.07 ± 0.094 | – | –
